Test results reported in the supplement of paper PMC6757056.
± gives the standard deviation of the averaged measurements.

B1: library; a variant is named by its letters at N, in order (parent)
chain: GCUGUCACCGGAAUACCAGCAUCGUCUUGAUGCCCUUGGAAGUCCGGUCUGAUGAGUCCNNNNNGGACGAAACAGC

Columns and labels:
[1] = variants of: B1; assay: FACS-Seq fitted mean relative fluorescence mCherry/BFP without ligand (log10 relative fluorescence); higher = higher reporter protein expression; conditions: HEK293T, ligand present: no
Method: (§1)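 Hammerhead (sTRSV) ribozyme switch libraries with a ligand aptamer grafted on stem I and a randomized N4-6 loop II, cloned into the 3' UTR of mCherry and transiently transfected into HEK293T cells; RNA-Seq 72 h post transfection with ligand added 1 h before transfection; RNA read count / plasmid DNA read count normalized to the non-cleaving sTRSVctl (x100), log10; sequences with >100 DNA reads. FACS-Seq: lentiviral library sorted into 6 bins after 48 h ligand, log-normal fit mean of mCherry/BFP scaled to controls. Printed sequences are partial switch sequences.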

[2] = variants of: B1; assay: normalized RNA/DNA level with ligand (relative to sTRSVctl = 100) (log10 (% of sTRSVctl)); higher = less ribozyme self-cleavage, higher mRNA level; conditions: ligand concentration (+) RNA-Seq: 5 mM, HEK293T, reporter: mCherry (pCS4076), ligand present: yes
Method: as §1

[3] = variants of: B1; assay: normalized RNA/DNA level without ligand (relative to sTRSVctl = 100) (log10 (% of sTRSVctl)); higher = less ribozyme self-cleavage, higher mRNA level; conditions: HEK293T, reporter: mCherry (pCS4076), ligand present: no
Method: as §1

[4] = variants of: B1; assay: FACS-Seq fitted mean relative fluorescence mCherry/BFP with ligand (log10 relative fluorescence); ligand concentration (+) FACS-Seq: 1 mM; higher = higher reporter protein expression; conditions: HEK293T, ligand present: yes
Method: as §1

Row | Variant | FACS-Seq fitted mean (log10) [1] | normalized RNA/DNA level with ligand (log10) [2] | normalized RNA/DNA level without ligand (log10) [3] | FACS-Seq fitted mean (log10) [4]
1 | UAAUG | 0.816 ± 0.076 | 1.929 ± 0.0084 | 1.814 ± 0.0095 | 0.887 ± 0.071
2 | UAAUA | 0.553 ± 0.011 | 2.03 ± 0.11 | 1.56 ± 0.15 | 0.868 ± 0.015
3 | UAAUU | 0.64 ± 0.039 | 2 ± 0.023 | 1.84 ± 0.062 | 0.613 ± 0.056
4 | UACUC | 0.1 ± 0.14 | 2.1 ± 0.021 | 2.02 ± 0.039 | 0.351 ± 0.022
5 | UACUA | 0.959 ± 0.069 | 1.97 ± 0.11 | 1.67 ± 0.042 | 1.05 ± 0.071
6 | UACUG | 0.382 ± 0.044 | 1.9807 ± 0.00035 | 1.94 ± 0.04 | 0.421 ± 0.12
7 | UACUU | 0.59 ± 0.079 | 2.01 ± 0.023 | 1.9 ± 0.041 | 0.754 ± 0.026
8 | CACAA | 0.062 ± 0.032 | 2.014 ± 0.0084 | 1.56 ± 0.11 | 0.3195 ± 0.0011
9 | CACAC | 0.945 ± 0.11 | 2.02 ± 0.044 | 1.88 ± 0.11 | 1.03 ± 0.2
10 | CACAU | 0.589 ± 0.032 | 1.964 ± 0.0051 | 1.68 ± 0.099 | 0.693 ± 0.025
11 | CAGGU | 0.996 ± 0.18 | 2 ± 0.03 | 1.96 ± 0.041 | 0.848 ± 0.048
12 | CAGGA | 0.706 ± 0.028 | 2.01 ± 0.082 | 1.62 ± 0.25 | 0.799 ± 0.045
13 | CAGGC | 0.86 ± 0.039 | 2.06 ± 0.046 | 1.95 ± 0.03 | 0.813 ± 0.041
14 | CAAAC | 0.851 ± 0.024 | 1.92 ± 0.024 | 1.82 ± 0.054 | 0.833 ± 0.033
15 | CAAAA | 0.173 ± 0.019 | 1.95 ± 0.029 | 1.31 ± 0.062 | 0.67 ± 0.071
16 | CAAAU | 0.264 ± 0.0079 | 1.946 ± 0.0043 | 1.6 ± 0.19 | 0.399 ± 0.048
17 | UAAAC | 0.86 ± 0.034 | 1.978 ± 0.013 | 1.91 ± 0.096 | 0.924 ± 0.042
18 | UAAAU | 0.912 ± 0.013 | 1.978 ± 0.0035 | 1.84 ± 0.13 | 0.9829 ± 0.0075
19 | UAAAA | 0.164 ± 0.019 | 1.99 ± 0.029 | 1.206 ± 0.0047 | 0.589 ± 0.038
20 | UAAAG | 0.272 ± 0.033 | 2.041 ± 0.007 | 1.84 ± 0.11 | 0.497 ± 0.037
21 | AAGGA | 0.338 ± 0.022 | 2 ± 0.025 | 1.43 ± 0.099 | 0.8561 ± 0.0071
22 | AAGGC | 0.518 ± 0.013 | 1.93 ± 0.046 | 1.89 ± 0.079 | 0.476 ± 0.023
23 | AAGGG | 0.3836 ± 0.0021 | 1.85 ± 0.028 | 1.75 ± 0.037 | 0.381 ± 0.037
24 | UAACU | 0.803 ± 0.036 | 2 ± 0.14 | 1.89 ± 0.02 | 0.716 ± 0.1

Row | Variant | FACS-Seq fitted mean (log10) [1] | normalized RNA/DNA level with ligand (log10) [2] | normalized RNA/DNA level without ligand (log10) [3] | FACS-Seq fitted mean (log10) [4]
25 | UAACG | 0.784 ± 0.07 | 1.99 ± 0.04 | 1.87 ± 0.18 | 0.711 ± 0.018
26 | UAACA | 0.606 ± 0.025 | 1.99 ± 0.066 | 1.55 ± 0.053 | 0.813 ± 0.024
27 | UAACC | 0.589 ± 0.058 | 1.92 ± 0.025 | 1.92 ± 0.04 | 0.702 ± 0.061
28 | UAAGG | 0.645 ± 0.086 | 2.1 ± 0.067 | 1.89 ± 0.041 | 0.739 ± 0.044
29 | UAAGA | -0.11 ± 0.071 | 1.9752 ± 0.00034 | 1.48 ± 0.16 | 0.22 ± 0.072
30 | UAAGC | 1.08 ± 0.011 | 1.94 ± 0.059 | 1.92 ± 0.1 | 1.04 ± 0.073
31 | UAAGU | 0.651 ± 0.24 | 2.03 ± 0.044 | 1.86 ± 0.088 | 0.751 ± 0.013
32 | AAAAG | 0.487 ± 0.041 | 1.971 ± 0.00093 | 1.66 ± 0.028 | 0.638 ± 0.13
33 | AAAAC | 0.834 ± 0.057 | 1.944 ± 0.014 | 1.77 ± 0.066 | 0.873 ± 0.075
34 | AAAAA | -0.362 ± 0.072 | 1.85 ± 0.075 | 1.11 ± 0.061 | 0.356 ± 0.066
35 | AAAAU | 0.464 ± 0.031 | 2.02 ± 0.028 | 1.68 ± 0.028 | 0.572 ± 0.045
36 | CAAUU | 0.59 ± 0.019 | 2.02 ± 0.033 | 1.65 ± 0.096 | 0.775 ± 0.021
37 | CAAUA | 0.192 ± 0.018 | 1.96 ± 0.054 | 1.16 ± 0.17 | 0.785 ± 0.033
38 | CAAUC | 0.844 ± 0.034 | 1.94 ± 0.053 | 1.83 ± 0.13 | 0.825 ± 0.014
39 | AAAGG | 0.199 ± 0.022 | 1.976 ± 0.019 | 1.71 ± 0.033 | 0.426 ± 0.04
40 | AAAGA | -0.192 ± 0.043 | 1.92 ± 0.08 | 1.32 ± 0.06 | 0.259 ± 0.0043
41 | AAAGC | 1.03 ± 0.054 | 2.03 ± 0.041 | 1.79 ± 0.043 | 1.04 ± 0.14
42 | AAAGU | 0.9033 ± 0.0058 | 1.923 ± 0.018 | 1.58 ± 0.018 | 1.1 ± 0.046
43 | GAAUU | 0.234 ± 0.038 | 2.02 ± 0.045 | 1.75 ± 0.018 | 0.4307 ± 0.002
44 | GAAUG | 0.627 ± 0.023 | 1.9 ± 0.028 | 1.6 ± 0.093 | 0.713 ± 0.037
45 | GAAUA | 1.08 ± 0.19 | 1.85 ± 0.068 | 1.627 ± 0.0033 | 0.942 ± 0.085
46 | GAAUC | 0.7173 ± 0.0037 | 1.962 ± 0.011 | 1.855 ± 0.015 | 0.683 ± 0.059
47 | GAGGG | 0.948 ± 0.031 | 1.91 ± 0.22 | 1.67 ± 0.03 | 1.07 ± 0.07
48 | GAACG | 1.01 ± 0.081 | 1.89 ± 0.14 | 1.793 ± 0.015 | 1.03 ± 0.028

Row | Variant | FACS-Seq fitted mean (log10) [1] | normalized RNA/DNA level with ligand (log10) [2] | normalized RNA/DNA level without ligand (log10) [3] | FACS-Seq fitted mean (log10) [4]
49 | GAACU | 0.973 ± 0.11 | 2.033 ± 0.0061 | 1.83 ± 0.12 | 0.975 ± 0.024
50 | GAACA | 0.228 ± 0.096 | 1.92 ± 0.025 | 1.6 ± 0.015 | 0.116 ± 0.032
51 | GAACC | 0.828 ± 0.017 | 2 ± 0.024 | 1.87 ± 0.13 | 0.834 ± 0.11
52 | CACUA | 0.228 ± 0.023 | 1.99 ± 0.058 | 1.44 ± 0.063 | 0.437 ± 0.048
53 | CACUU | 0.741 ± 0.014 | 2 ± 0.028 | 1.756 ± 0.0024 | 1.028 ± 0.0013
54 | CACUC | 1 ± 0.12 | 2 ± 0.11 | 1.98 ± 0.096 | 0.969 ± 0.1
55 | GACCU | 1.03 ± 0.1 | 1.99 ± 0.064 | 1.95 ± 0.06 | 1.03 ± 0.15
56 | AACGG | 0.852 ± 0.14 | 2 ± 0.049 | 1.8 ± 0.057 | 0.998 ± 0.083
57 | AACGU | 0.773 ± 0.075 | 1.965 ± 0.017 | 1.793 ± 0.011 | 0.854 ± 0.2
58 | AACGC | 0.98544 ± 0.00052 | 2.135 ± 0.0047 | 1.94 ± 0.072 | 0.922 ± 0.023
59 | AACGA | 0.235 ± 0.038 | 1.96 ± 0.1 | 1.53 ± 0.17 | 0.536 ± 0.026
60 | CAAGA | 0.32 ± 0.031 | 1.97 ± 0.023 | 1.56 ± 0.15 | 0.3733 ± 0.0017
61 | CAAGC | 0.66 ± 0.031 | 1.96 ± 0.064 | 1.99 ± 0.079 | 0.543 ± 0.046
62 | CAAGU | 0.759 ± 0.043 | 1.976 ± 0.016 | 1.94 ± 0.067 | 0.761 ± 0.14
63 | GAAGA | 0.532 ± 0.0054 | 1.89 ± 0.051 | 1.46 ± 0.36 | 0.761 ± 0.092
64 | GAAGG | 0.991 ± 0.26 | 1.87 ± 0.011 | 1.72 ± 0.12 | 0.957 ± 0.057
65 | GAAGU | 0.25 ± 0.013 | 1.94 ± 0.12 | 1.68 ± 0.17 | 0.483 ± 0.031
66 | AAGCG | 0.683 ± 0.068 | 2 ± 0.075 | 1.96 ± 0.067 | 0.7793 ± 0.0014
67 | AAGCA | 0.538 ± 0.016 | 2.03 ± 0.051 | 1.8 ± 0.033 | 0.682 ± 0.023
68 | AAGCU | 0.983 ± 0.1 | 2.05 ± 0.094 | 1.78 ± 0.077 | 1.11 ± 0.11
69 | AAGCC | 0.748 ± 0.02 | 2.03 ± 0.089 | 2.01 ± 0.071 | 0.7196 ± 0.0051
70 | CAACC | 1.06 ± 0.065 | 1.91 ± 0.059 | 1.994 ± 0.0033 | 1.02 ± 0.03
71 | CAACU | 0.64 ± 0.013 | 1.98 ± 0.048 | 1.73 ± 0.17 | 0.815 ± 0.097
72 | CAACA | 0.729 ± 0.046 | 1.98 ± 0.018 | 1.53 ± 0.0043 | 0.886 ± 0.058
